Reference: patent publication US20130004429A1
Ends that are not written are not given here. * marks the point of attachment. Biotin = O=C1N[C@H]2[C@H](CS[C@H]2CCCCC(=O)*)N1

Target: tubulin (rat)
Assay: cell-based or functional assay

cells with altered microtubule network (immunocytochemistry), 9L rat glioma cells: 76.7%
cells with altered microtubule network (immunocytochemistry), F98 rat glioma cells: 82%
cells with altered microtubule network (immunocytochemistry), rat neurons: 8.5%
cells with altered microtubule network (immunocytochemistry), rat primary astrocytes: 4.7%
Binder: Biotin-YSSYSAPVSSSLSVRRSYSSSSGS [NFL-TBS40-63 peptide, biotinylated]
